Experimental data reported in patent US20140087995A1 (published 2014).
Numbered stars: 1 amine (or outer) side, 2 acyl side, 3 side chain; on linkers, the order of the positions; unused ones are H or OH. Bridge positions count the residues as written; N and C are the ends. Side chains are listed from the residue outwards. Ends that are not written are not given here. * marks the point of attachment. C20 diacid = O=C(O)CCCCCCCCCCCCCCCCCCC(=O)*; γGlu = O=C(O)[C@H](CCC(=O)[*:2])N[*:1]; AEEA = NCCOCCOCC(=O)O

T1: human amylin receptor (amylin 3(a) receptor: human calcitonin receptor with RAMP-3) (human, UniProt P30988 25-474; O60896 24-148)
T1 construct: whole, on cells; Assay used cell membranes of the Amylin 3(a)/CRE-luc BHK cells, not intact cells; also called hAmylin-R; hAmylinR
T1 sequence (looked up) 1: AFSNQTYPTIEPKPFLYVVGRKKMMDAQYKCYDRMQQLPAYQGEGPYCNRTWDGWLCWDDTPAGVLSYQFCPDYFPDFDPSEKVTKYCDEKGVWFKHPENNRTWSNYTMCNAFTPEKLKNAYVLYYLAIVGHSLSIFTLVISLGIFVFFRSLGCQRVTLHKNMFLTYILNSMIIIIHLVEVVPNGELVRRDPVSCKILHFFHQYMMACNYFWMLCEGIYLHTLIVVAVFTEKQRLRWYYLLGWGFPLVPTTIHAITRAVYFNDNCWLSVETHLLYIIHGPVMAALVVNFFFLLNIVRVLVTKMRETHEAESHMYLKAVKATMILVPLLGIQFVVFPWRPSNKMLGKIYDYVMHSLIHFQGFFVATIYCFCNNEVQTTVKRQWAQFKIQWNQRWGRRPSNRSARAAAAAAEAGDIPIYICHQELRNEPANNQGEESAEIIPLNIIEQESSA
T1 sequence (looked up) 2: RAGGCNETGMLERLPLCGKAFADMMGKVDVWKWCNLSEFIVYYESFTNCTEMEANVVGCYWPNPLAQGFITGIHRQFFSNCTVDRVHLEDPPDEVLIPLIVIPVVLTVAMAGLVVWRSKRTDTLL

T2: human calcitonin receptor (human, UniProt P30988 25-474)
T2 construct: whole, on cells; Assay used cell membranes, not intact cells; also called hCTR; hCT
T2 sequence (looked up): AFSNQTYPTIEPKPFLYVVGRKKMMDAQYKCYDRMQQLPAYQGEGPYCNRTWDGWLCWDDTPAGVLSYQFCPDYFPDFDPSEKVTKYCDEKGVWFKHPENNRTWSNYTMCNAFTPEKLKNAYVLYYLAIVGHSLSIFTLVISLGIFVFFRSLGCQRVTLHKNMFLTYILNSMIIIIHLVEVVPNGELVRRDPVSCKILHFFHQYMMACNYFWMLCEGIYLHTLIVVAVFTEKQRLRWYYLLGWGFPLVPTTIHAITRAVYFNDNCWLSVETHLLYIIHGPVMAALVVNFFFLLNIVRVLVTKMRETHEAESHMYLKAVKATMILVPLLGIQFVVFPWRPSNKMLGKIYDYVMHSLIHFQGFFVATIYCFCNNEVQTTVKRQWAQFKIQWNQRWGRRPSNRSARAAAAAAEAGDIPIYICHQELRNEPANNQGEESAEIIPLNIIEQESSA

T3: human calcitonin receptor (human, UniProt P30988 25-474)
T3 construct: whole, on cells; Assay used cell membranes of the transfected BHK cells; also called hCTR; hCT
T3 sequence (looked up): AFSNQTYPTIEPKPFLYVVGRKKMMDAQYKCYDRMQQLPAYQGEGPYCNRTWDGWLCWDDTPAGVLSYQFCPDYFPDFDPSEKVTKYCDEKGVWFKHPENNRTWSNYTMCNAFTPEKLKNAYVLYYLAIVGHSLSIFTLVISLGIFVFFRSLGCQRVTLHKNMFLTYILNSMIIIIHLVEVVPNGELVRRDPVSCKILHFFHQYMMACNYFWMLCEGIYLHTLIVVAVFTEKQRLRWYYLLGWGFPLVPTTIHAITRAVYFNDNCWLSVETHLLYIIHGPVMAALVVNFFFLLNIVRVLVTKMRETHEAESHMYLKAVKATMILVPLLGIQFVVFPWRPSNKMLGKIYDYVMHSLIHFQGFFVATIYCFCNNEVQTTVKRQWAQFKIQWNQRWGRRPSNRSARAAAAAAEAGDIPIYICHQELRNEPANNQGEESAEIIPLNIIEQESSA


Columns and labels:
[1] = target: T1, human amylin receptor (amylin 3(a) …); assay: SPA competition with 125I-rat amylin on membranes of BHK cells with human calcitonin receptor and RAMP-3 (Assay V)
Procedure, shortened: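 One-site competition analysis of SPA counts yielded IC₅₀ as a measure of affinity. Membranes were at 35 ng/μL final; incubation was 120 min at 25° C, pH 7.4.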

[2] = target: T2, human calcitonin receptor; assay: ratio IC50 hCTR / IC50 hAmylin-R (reference: human amylin receptor), SPA competition assays
Procedure, shortened: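 Competition binding by SPA uses membrane preparations (35 ng/μL final) in pH 7.4 Hepes buffer with 1 mM CaCl2 and 5 mM MgCl₂. Incubation lasts 120 min at 25° C, and IC₅₀ comes from one-site fitting.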

[3] = target: T2, human calcitonin receptor; assay: SPA competition with 125I-calcitonin on membranes of BHK cells with human calcitonin receptor (Assay VII)
Procedure, shortened: (§1)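 BHK hCTR membranes 35 ng/μL + SPA beads 0.05 mg/well; buffer 50 mM Hepes pH 7.4, 1 mM CaCl2, 5 mM MgCl₂, 0.1% OA, 0.02% Tween20. 120 min, 25° C., shaking. Scintillation count; IC50 by one-site binding competition.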

[4] = target: T3, human calcitonin receptor; assay: SPA radioligand competition (125I-calcitonin), membranes of BHK cells with human calcitonin receptor
Procedure, shortened: as §1

Binder | IC50 [1] | Ratio hCT/hAmylin binding [2] | IC50 [3] | IC50 [4]
{C20 diacid-γGlu}-GRCNTATCATQRLAHFLRHSSPNFGAIPSSTNVGPNTY-NH2 (disulfide 3-8; SMILES CC[C@H](C)[C@H](NC(=O)[C@H](C)NC(=O)CNC(=O)[C@H](Cc1ccccc1)NC(=O)[C@H](CC(N)=O)NC(=O)[C@@H]1CCCN1C(=O)[C@H](CO)NC(=O)[C@H](CO)NC(=O)[C@H](Cc1c[nH]cn1)NC(=O)[C@H](CCCNC(=N)N)NC(=O)[C@H](CC(C)C)NC(=O)[C@H](Cc1ccccc1)NC(=O)[C@H](Cc1c[nH]cn1)NC(=O)[C@H](C)NC(=O)[C@H](CC(C)C)NC(=O)[C@H](CCCNC(=N)N)NC(=O)[C@H](CCC(N)=O)NC(=O)[C@@H](NC(=O)[C@H](C)NC(=O)[C@@H]1CSSC[C@H](NC(=O)[C@H](CCCNC(=N)N)NC(=O)CNC(=O)CC[C@H](NC(=O)CCCCCCCCCCCCCCCCCCC(=O)O)C(=O)O)C(=O)N[C@@H](CC(N)=O)C(=O)N[C@@H]([C@@H](C)O)C(=O)N[C@@H](C)C(=O)N[C@@H]([C@@H](C)O)C(=O)N1)[C@@H](C)O)C(=O)N1CCC[C@H]1C(=O)N[C@@H](CO)C(=O)N[C@@H](CO)C(=O)N[C@H](C(=O)N[C@@H](CC(N)=O)C(=O)N[C@H](C(=O)NCC(=O)N1CCC[C@H]1C(=O)N[C@@H](CC(N)=O)C(=O)N[C@H](C(=O)N[C@@H](Cc1ccc(O)cc1)C(N)=O)[C@@H](C)O)C(C)C)[C@@H](C)O) | 0.217 nM | 36.2 | 7.87 nM | 
{C20 diacid-γGlu}-GRCNTATCATQRLAHFLRHSSPNFGAIPSSTNVGSNTY-NH2 (disulfide 3-8; SMILES CC[C@H](C)[C@H](NC(=O)[C@H](C)NC(=O)CNC(=O)[C@H](Cc1ccccc1)NC(=O)[C@H](CC(N)=O)NC(=O)[C@@H]1CCCN1C(=O)[C@H](CO)NC(=O)[C@H](CO)NC(=O)[C@H](Cc1c[nH]cn1)NC(=O)[C@H](CCCNC(=N)N)NC(=O)[C@H](CC(C)C)NC(=O)[C@H](Cc1ccccc1)NC(=O)[C@H](Cc1c[nH]cn1)NC(=O)[C@H](C)NC(=O)[C@H](CC(C)C)NC(=O)[C@H](CCCNC(=N)N)NC(=O)[C@H](CCC(N)=O)NC(=O)[C@@H](NC(=O)[C@H](C)NC(=O)[C@@H]1CSSC[C@H](NC(=O)[C@H](CCCNC(=N)N)NC(=O)CNC(=O)CC[C@H](NC(=O)CCCCCCCCCCCCCCCCCCC(=O)O)C(=O)O)C(=O)N[C@@H](CC(N)=O)C(=O)N[C@@H]([C@@H](C)O)C(=O)N[C@@H](C)C(=O)N[C@@H]([C@@H](C)O)C(=O)N1)[C@@H](C)O)C(=O)N1CCC[C@H]1C(=O)N[C@@H](CO)C(=O)N[C@@H](CO)C(=O)N[C@H](C(=O)N[C@@H](CC(N)=O)C(=O)N[C@H](C(=O)NCC(=O)N[C@@H](CO)C(=O)N[C@@H](CC(N)=O)C(=O)N[C@H](C(=O)N[C@@H](Cc1ccc(O)cc1)C(N)=O)[C@@H](C)O)C(C)C)[C@@H](C)O, also called compound 99) | 0.348 nM | 100 | 35 nM | 
K([AEEA-γGlu-C20 diacid])CNTATCATQRLANFLRHSSPNFGAIPPSTPVGSNTY-NH2 (disulfide 2-7, Synthetic analogue; also called compound 53) |  |  |  | 5.38 nM
